In the nanobody polyreactivity screen of Harvey et al. (2022):

Test: yeast display, Sf9 membrane polyspecificity reagent, FACS + sequencing; frameworks hold sequencing errors
Outline: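 Galactose-induced (36–48 hours) yeast carrying a synthetic nanobody display library were exposed to 10% biotinylated, detergent-solubilized Sf9 membrane reagent at 4 °C for 1 hour. FACS followed streptavidin microbead enrichment, using low and high (top ~1%) gates for expression (anti-HA) and reagent binding (streptavidin). Colony PCR, MiSeq 2 × 250 sequencing and CDR-length filtering followed. Labels for polyreactivity reflect the gate of origin.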

Sequence | polyreactivity (PSR sort gate)
QVQLVESGGGLVQAGGSLRLSCAASGRISSQYAMGWYRQAPGKERELVAAISTSGDRTYYADSVKGRFTISRDNAKNTVYLQMNSLKPEDTAVYYCAKDGPYTYGRDIYEYWGQGTQVTVSS | low polyreactivity
QVQLVESGGGLVQAGGSLRLSCAASGRISSSYAMGWYRQAPGKEREFVAGITSIGGRTYYADSVKGRFTISRDNAKNTVYLQMNSLKPEDTAVYYCATTSSWRYGYWGQGTQVTVSS | high polyreactivity
QVQLVESGGGLVQAGGSLRLSCAASGRISSVYAMGWYRQAPGKERELVAAINWRVGSTYYADSVKGRFTISRDNAKNTVYLQMNSLKPEDTAVYYCAVDPVYGIIGSRYDYWGQGTQVTVSS | low polyreactivity
QVQLVESGGGLVQAGGSLRLSCAASGRISTYTMGWYRQAPGKERELVATISTHASTNYSDSVKGRFTISRDNAKYTVYLQKYSMKPEDNAVFYCATTVPVILYVTPSTYAVVGYEYWGQGTQVTVSS | low polyreactivity
QVQLVESGGGLVQAGGSLRLSCAASGRISWVYAKGWYRQPPGKERELVAAITFSGGSTYYADSVKGRFTISSDNEKNTVYLQMNSLKPEDTAVYYCAADVLAIYSHRYYRYDSWGQGTQVTVSS | high polyreactivity
QVQLVESGGGLVQAGGSLRLSCAASGRISYYYMGWYRQAPGKERELVAAISWNGGRTYYADSVKGRFTISRDNAKNTVYLQMNSLKPEDTAVYYCAAYTYSFRANHDYWGQGTQVTVSS | high polyreactivity
QVQLVESGGGLVQAGGSLRLSCAASGRITQYTMGWYRQAPGKERELVASIRKSGSTHYADSVKGRFTISRDNAKNTVYLQMNSLKPEDTAVYYCAARTYNPLTGYGYWGQGTQVTVSS | high polyreactivity
QVQLVESGGGLVQAGGSLRLSCAASGRIVGAYAMGWYRQAPGKERELVAAITSAGSTHYADSVKGRFTISRDNAKNTVYLQMNSLKPEDSAVYYCAADGIARAYVLFYAYDFLYDYWGQGTQVTVSS | low polyreactivity
QVQLVESGGGLVQAGGSLRLSCAASGRIVGLYAKGWYRQAPGKERELVATITRRAGSTYYADSVKGRFTISRDYAKNTVYLLMNSLKPEDTAVYYCAASALRFNSRFSHWYNYWGQGTQVTVSS | high polyreactivity
QVQLVESGGGLVQAGGSLRLSCAASGRIVKANAMGWYRQAPGKERELVAAIRESGGTTYYADSVKGRFTISRDNATNTVYLQMNSLKPEDTAVYYCAAAYRDTQYNYYYWGQGTQVTVSS | high polyreactivity
QVQLVESGGGLVQAGGSLRLSCAASGRIVKYAMGWYRQAPGKERELVAAISGSGGTTYYADSVKGRFTISRDNAKNTVYLQMNSLKPEDTAVYYCAASRPRPPSSRRMDYWGQGTQVTVSS | high polyreactivity
QVQLVESGGGLVQAGGSLRLSCAASGRIVKYAMGWYRQAPGKERELVAAISSSGGTTYYADSVKGRFTISRDNAKNTVYLQMISLKPEDTAVYYCAAPGTYTSRGSDYWGQGTQVTVSS | high polyreactivity
QVQLVESGGGLVQAGGSLRLSCAASGRIVPYAMGWYRQAPGKERELVARINFNGGSTYYADSVKGRFTISRDNAKNTVYLQMNSLKPEDTAVYDCAARVYRYRYSKYDYWGQGTQVTVSS | high polyreactivity
QVQLVESGGGLVQAGGSLRLSCAASGRIVRRYARGWYIQAPGKERELVAAITNNGGNTYYADSVKGRFTISRDNAKNTVYLQMNSLKPEDTAVYYCKAGYYWGQGTQVTVSS | high polyreactivity
QVQLVESGGGLVQAGGSLRLSCAASGRIVYSNAMVWYRQAPGKERELVASITRGSRTNYADSVKGRFTISRDNAKHSVYLPMNSLKPEDTAVYYCARRYLLKPGFGRFYYWGQGNQVTVSS | high polyreactivity
QVQLVESGGGLVQAGGSLRLSCAASGRIWVNAMGCYRQAPWKESELVAAISTSSASTYYADSVKGRFTISRDNAKNTVYLEMNSLKPEDTAVYYCAARWARQLGSGRRGDYWGQGTQVTVSS | high polyreactivity

Sequence | polyreactivity (PSR sort gate)
QVQLVESGGGLVQAGGSLRLSCAASGRIWVYYTMGWYRQAPGKERELVAAITGSGGSTYYADSVTGRFTISRDNATNTVYLQMNSLKPEDTAVYYCAVYDSYRKFKYWGQGTQVTVSS | high polyreactivity
QVQLVESGGGLVQAGGSLRLSCAASGRIWYYAMGWYRQAPGKERELVAAISFSGGTTYYADSVKGRFTISRDNAKNTVYFPMNSLKPEDTGVYYCNKVSVGRYKRDYWGQGTQVTVSS | high polyreactivity
QVQLVESGGGLVQAGGSLRLSCAASGRIYASYVMGWYRQAPGKERELVAAISYGGSRTYYADSVKGRFTISRDNAKNTVYLQMNSLKPEDTAVYYCAAKKYTNRGYYYWGQGTQVTVSS | high polyreactivity
QVQLVESGGGLVQAGGSLRLSCAASGRIYAVNAMRWYRQAPGKERELVARIRRIGGSTYYADSVKGRFTISRDNAKNTVYLQMNSMKPEDTAVYYCAKTLGRRHPGYDYWGQGTQVTVSS | high polyreactivity
QVQLVESGGGLVQAGGSLRLSCAASGRIYDDYAMGWYRQAPGKERELVAAISSSGGSTYYADSVKGRFTISRDNAKNTVYLQMNSLKPEDTAVYYCARYPPGRRRYEYWGQGTQVTVSS | high polyreactivity
QVQLVESGGGLVQAGGSLRLSCAASGRIYGDNTMGWYRQAPGKEREFVAAISFIGGSTYYADSVKGRFTISRDNAKNTVYLQMNSLKPEDTAVYYCATVERWTYWFVGYDYWGQGTQVTGSS | high polyreactivity
QVQLVESGGGLVQAGGSLRLSCAASGRIYGYAMGWYRQAPGKESELVAVITTSGGRTYYADSVKGRFTISRDNAKNTVYLQMNSLKPEDNAVYYCNVGKPSRRSYGTLIPAALYDSWGQGTQVTVSS | high polyreactivity
QVQLVESGGGLVQAGGSLRLSCAASGRIYLNAMGWYRQAPGKERELVAAISSRGASTYYADSVKGRFTISRDNAKNTVYLQMKSLKPEDTAVFYCAARLRNIYYFRMGYWGQGTQVTVSS | high polyreactivity
QVQLVESGGGLVQAGGSLRLSCAASGRIYPGYTMGWYRQAPGKERELVAGISRSGGRTYYADSVKGRFTISRDNAKNTVYLQMNSLKPEDTAVYYCAADGYPGRRYTGMDYWGQGTQVTVSS | high polyreactivity
QVQLVESGGGLVQAGGSLRLSCAASGRIYPVYAMGWYRPAPGKERELVAAITSGVSTNYADSVKGRFTISRDNAKNTVYLQMNSLKPEDTAVYYCNKDYTTYPYYEDGYWGLGTQVTVSS | low polyreactivity
QVQLVESGGGLVQAGGSLRLSCAASGRIYRGNTKGWYRQAPGKERELVAAITRGGSTSYADSVKGRFTISRDNAKNTVYLQMMSLKPEDTAVYYCATRTHGEGTRRDSWGQGTQVTVSS | low polyreactivity
QVQLVESGGGLVQAGGSLRLSCAASGRIYRSYAMGWYRQAPGKERDLVAAITKSGGGTYYADTVKGRYTISRVNAKNTVYLQMNSLNPEDTAVYYCGARGHGGYYYWGQGTQVTVSS | high polyreactivity
QVQLVESGGGLVQAGGSLRLSCAASGRIYRYYAMGWYRQAPGKERELVAAITRSGGTTYYADSVKGRFTISRDNAKYTVYLQMNSLKPEDTAVYYCNAGVGQKYDYWGQVTQVTVSS | high polyreactivity
QVQLVESGGGLVQAGGSLRLSCAASGRIYSTNAMRWYRQAPGKEREFVAAIYWIGGSTYYADSVKGRFTISRDNAKNTVYLQMNSLKPEDTAVYYCAAGVYDDYPWSYDIFNLYDYWGQGTQVTVSS | low polyreactivity
QVQLVESGGGLVQAGGSLRLSCAASGRIYTYYTMGWYRQAPGKERELVAAITVRGGRTYYADSVKGRFTISRDNAKNTVYLQMNSLKPEDTAVYYCAARGLVRSYDYWGQVTQVTVSS | high polyreactivity
QVQLVESGGGLVQAGGSLRLSCAASGRIYVYAMGWYRQAPGKEREMVAAITASDGSTYYADSVKGRFTISRDNAKNTVYLQMNSLKPEDTAVYYCAADIYEHNYYGYYYWGQGTKVTVSS | high polyreactivity
